{"source": "the supplement of paper PMC9170038", "tested_on": "MS2 coat protein", "experiment": "apparent KD of MS2 coat protein; higher = weaker reporter binding", "conditions": "Eterna round: R107", "summary_of_the_method": "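Titrations with SNAP-549-labelled MS2 coat protein ran in twofold steps from 0.7 or 1.5 nM to 3 µM, each step taking 0.8–1.5 h at the start and 10–20 min toward the end. The targets were designed RNA switches transcribed on-chip from Illumina sequencing clusters, held in 100 mM Tris-HCl pH 7.5, 80 mM KCl, 4 mM MgCl2, without or with constant ligand. Apparent KD was taken per design as the median of normalised cluster binding-curve fits.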", "key": {"[1]": {"conditions": "input ligand: theophylline 20 uM"}, "[2]": {"conditions": "input ligand: theophylline 2 mM"}, "[3]": {"conditions": "input ligand: tryptophan 2.4 mM"}}, "data": [{"sequence": "GGACUAACCAGAAGGAGCGACGCAAGCAGAAACUGCAAUCCUCCGCACGAGGAUCACCCGUGUCAGGUAGGUCGCUGGUUAGUCG [ArgBX 28]", "values": [{"measurement": "apparent KD of MS2 coat protein", "setting": "input ligand: arginine 13.2 mM", "result": 0.0216, "unit": "µM"}, {"measurement": "apparent KD of MS2 coat protein", "setting": "input ligand: none", "result": 0.0282, "unit": "µM"}, {"measurement": "apparent KD of MS2 coat protein", "setting": "[1]", "result": 0.0384, "unit": "µM"}, {"measurement": "apparent KD of MS2 coat protein", "setting": "[2]", "result": 0.0301, "unit": "µM"}, {"measurement": "apparent KD of MS2 coat protein", "setting": "[3]", "result": 0.0292, "unit": "µM"}]}, {"sequence": "GGACUAACCUGAAGGAGCGACACGCACAAAGUGCAAAUUCCUCCACACGAGGAUCACCCGUGUCAGGUAGGUCGCAGGUUAGUCG [ArgBX 28]", "values": [{"measurement": "apparent KD of MS2 coat protein", "setting": "input ligand: arginine 13.2 mM", "result": 0.0243, "unit": "µM"}, {"measurement": "apparent KD of MS2 coat protein", "setting": "input ligand: none", "result": 0.023, "unit": "µM"}, {"measurement": "apparent KD of MS2 coat protein", "setting": "[1]", "result": 0.0308, "unit": "µM"}, {"measurement": "apparent KD of MS2 coat protein", "setting": "[2]", "result": 0.0237, "unit": "µM"}, {"measurement": "apparent KD of MS2 coat protein", "setting": "[3]", "result": 0.0291, "unit": "µM"}]}, {"sequence": "GGAGCUACGUCGGCCGCCACUAGCGGUAAUUACGUGUACAUGAGGAUCACCCAUGUAAUAUGGACUAGGACCGGGACGUAGCUCC [Salmon]", "values": [{"measurement": "apparent KD of MS2 coat protein", "setting": "input ligand: arginine 13.2 mM", "result": 0.0106, "unit": "µM"}, {"measurement": "apparent KD of MS2 coat protein", "setting": "input ligand: none", "result": 0.0133, "unit": "µM"}, {"measurement": "apparent KD of MS2 coat protein", "setting": "[1]", "result": 0.0218, "unit": "µM"}, {"measurement": "apparent KD of MS2 coat protein", "setting": "[2]", "result": 0.0137, "unit": "µM"}, {"measurement": "apparent KD of MS2 coat protein", "setting": "[3]", "result": 0.0122, "unit": "µM"}]}, {"sequence": "GGAGUCGGCACGGCCGCCACUGCGGUGGUGUGACAUGAGGAUCACCCAUGUUGUCAUGCGGCCCUUAGGACCGGGUGGCGGUUCC [#1 Exclusion - Tryptophan B Attempt #22 (HarryS)]", "values": [{"measurement": "apparent KD of MS2 coat protein", "setting": "input ligand: arginine 13.2 mM", "result": 0.0284, "unit": "µM"}, {"measurement": "apparent KD of MS2 coat protein", "setting": "input ligand: none", "result": 0.0587, "unit": "µM"}, {"measurement": "apparent KD of MS2 coat protein", "setting": "[1]", "result": 0.0761, "unit": "µM"}, {"measurement": "apparent KD of MS2 coat protein", "setting": "[2]", "result": 0.0826, "unit": "µM"}]}, {"sequence": "GGAUAGGACACGGCCGCCACUACCUAGGAUACUAGCAACAUUUGGGUACAUGAGGAUCACCCAUGUAGGACCGGGUGUCCUAUCG", "values": [{"measurement": "apparent KD of MS2 coat protein", "setting": "input ligand: arginine 13.2 mM", "result": 0.0319, "unit": "µM"}, {"measurement": "apparent KD of MS2 coat protein", "setting": "input ligand: none", "result": 0.0253, "unit": "µM"}, {"measurement": "apparent KD of MS2 coat protein", "setting": "[1]", "result": 0.0342, "unit": "µM"}, {"measurement": "apparent KD of MS2 coat protein", "setting": "[2]", "result": 0.0284, "unit": "µM"}, {"measurement": "apparent KD of MS2 coat protein", "setting": "[3]", "result": 0.124, "unit": "µM"}]}, {"sequence": "GGAUAGGACAGAAGGAGCGACAUGGCGACGAAAGUCGAAACUUCACAUGAGGAUCACCCAUGUCAGGUAGGUCGCUGUCCUAUCG [ArgXB 7 #MS2Gate #StaticStem]", "values": [{"measurement": "apparent KD of MS2 coat protein", "setting": "input ligand: arginine 13.2 mM", "result": 0.0488, "unit": "µM"}, {"measurement": "apparent KD of MS2 coat protein", "setting": "input ligand: none", "result": 0.0489, "unit": "µM"}, {"measurement": "apparent KD of MS2 coat protein", "setting": "[1]", "result": 0.0638, "unit": "µM"}, {"measurement": "apparent KD of MS2 coat protein", "setting": "[2]", "result": 0.0557, "unit": "µM"}, {"measurement": "apparent KD of MS2 coat protein", "setting": "[3]", "result": 0.0471, "unit": "µM"}]}, {"sequence": "GGCAAGCGAGACAUGAGGAUCACCCAUGUUCGAGGACCGGUACGGCCGCCACUCGGUGGACUCAUGGUAAAGCCGGUGAGCCAAA [AK 1 SS Trypt (A)]", "values": [{"measurement": "apparent KD of MS2 coat protein", "setting": "input ligand: arginine 13.2 mM", "result": 0.0274, "unit": "µM"}, {"measurement": "apparent KD of MS2 coat protein", "setting": "[1]", "result": 0.0448, "unit": "µM"}, {"measurement": "apparent KD of MS2 coat protein", "setting": "[2]", "result": 0.038, "unit": "µM"}]}, {"sequence": "GGCACAUGUGGAAGGAGCGUCGUACGAGCUACAUGAGGAUCACCCAUGUCGGUUAGUGUCCGACAGGUAGGUCGCCACAUUUAAC [Isiser]", "values": [{"measurement": "apparent KD of MS2 coat protein", "setting": "input ligand: arginine 13.2 mM", "result": 0.114, "unit": "µM"}, {"measurement": "apparent KD of MS2 coat protein", "setting": "input ligand: none", "result": 0.374, "unit": "µM"}, {"measurement": "apparent KD of MS2 coat protein", "setting": "[1]", "result": 0.235, "unit": "µM"}, {"measurement": "apparent KD of MS2 coat protein", "setting": "[2]", "result": 0.551, "unit": "µM"}, {"measurement": "apparent KD of MS2 coat protein", "setting": "[3]", "result": 0.195, "unit": "µM"}]}, {"sequence": "GGCACCAGGAGAAGGAGCGUGAAGACAUGAGGAUCACCCAUGUAGAGGCCCGGACCGGGUUCGCAGGUAGGUCGCUCCUGGUGCC [#1 Same State - Arginine B Attempt #15 (HarryS)]", "values": [{"measurement": "apparent KD of MS2 coat protein", "setting": "input ligand: arginine 13.2 mM", "result": 0.01, "unit": "µM"}, {"measurement": "apparent KD of MS2 coat protein", "setting": "input ligand: none", "result": 0.0156, "unit": "µM"}, {"measurement": "apparent KD of MS2 coat protein", "setting": "[1]", "result": 0.0179, "unit": "µM"}, {"measurement": "apparent KD of MS2 coat protein", "setting": "[2]", "result": 0.023, "unit": "µM"}, {"measurement": "apparent KD of MS2 coat protein", "setting": "[3]", "result": 0.0169, "unit": "µM"}]}, {"sequence": "GGCCUAUGGCGCGAUACCAGCUUGAGUGUACUGGCCAGGUACAUGAGGAUCACCCAUGUAAGCCCUUGGCAGCGCGUCAUAGGCC [#1 Exclusion - Theophylline B Attempt #23 (HarryS)]", "values": [{"measurement": "apparent KD of MS2 coat protein", "setting": "input ligand: arginine 13.2 mM", "result": 0.00891, "unit": "µM"}, {"measurement": "apparent KD of MS2 coat protein", "setting": "input ligand: none", "result": 0.00995, "unit": "µM"}, {"measurement": "apparent KD of MS2 coat protein", "setting": "[1]", "result": 0.0179, "unit": "µM"}, {"measurement": "apparent KD of MS2 coat protein", "setting": "[2]", "result": 0.0322, "unit": "µM"}, {"measurement": "apparent KD of MS2 coat protein", "setting": "[3]", "result": 0.00974, "unit": "µM"}]}, {"sequence": "GGCUACAUGAGGAUCACCCAUGUUUCUCGUCGAGGACCGGUACGGCCGCCACUCGUUGUUGGGACUCAGUAUCAGUCGUUAGUUU [theeternabot_sameState_MS2_Trp_A_36]", "values": [{"measurement": "apparent KD of MS2 coat protein", "setting": "input ligand: arginine 13.2 mM", "result": 0.0238, "unit": "µM"}, {"measurement": "apparent KD of MS2 coat protein", "setting": "[1]", "result": 0.0343, "unit": "µM"}, {"measurement": "apparent KD of MS2 coat protein", "setting": "[2]", "result": 0.0402, "unit": "µM"}]}, {"sequence": "GGCUCCAGCCGAAGGAGCGCUAGAAGGUGACAUGAGGAUCACCCAUGUGUGUGAUGUGGCUAGCAGGUAGGUCGCGGAGGAGCUU [Exclusion - Arginine B (Freestyle 19)]", "values": [{"measurement": "apparent KD of MS2 coat protein", "setting": "input ligand: arginine 13.2 mM", "result": 0.0625, "unit": "µM"}, {"measurement": "apparent KD of MS2 coat protein", "setting": "input ligand: none", "result": 0.0645, "unit": "µM"}, {"measurement": "apparent KD of MS2 coat protein", "setting": "[1]", "result": 0.108, "unit": "µM"}, {"measurement": "apparent KD of MS2 coat protein", "setting": "[2]", "result": 0.0906, "unit": "µM"}, {"measurement": "apparent KD of MS2 coat protein", "setting": "[3]", "result": 0.0711, "unit": "µM"}]}, {"sequence": "GGGAAAGGAGAAGAUACCAGCCGCCUCACAAGUCUACACUACAUGAGGAUCACCCAUGUGGGCCCUUGGCAGCUUGACCGCGAAA [theeternabot_exclusion_MS2_Theo_B_20]", "values": [{"measurement": "apparent KD of MS2 coat protein", "setting": "input ligand: arginine 13.2 mM", "result": 0.0232, "unit": "µM"}, {"measurement": "apparent KD of MS2 coat protein", "setting": "input ligand: none", "result": 0.0274, "unit": "µM"}, {"measurement": "apparent KD of MS2 coat protein", "setting": "[1]", "result": 0.0477, "unit": "µM"}, {"measurement": "apparent KD of MS2 coat protein", "setting": "[2]", "result": 0.042, "unit": "µM"}, {"measurement": "apparent KD of MS2 coat protein", "setting": "[3]", "result": 0.0393, "unit": "µM"}]}, {"sequence": "GGGAAUGAACGUGAUACCAGAGAUCCGGUCUCCGUCAAUAUACAUGAGGAUCACCCAUGUCUCCCUUGGCAGCACCGUCAUCGGG [Exclusion Theophylline B GF 28]", "values": [{"measurement": "apparent KD of MS2 coat protein", "setting": "input ligand: arginine 13.2 mM", "result": 0.0143, "unit": "µM"}, {"measurement": "apparent KD of MS2 coat protein", "setting": "[1]", "result": 0.0204, "unit": "µM"}, {"measurement": "apparent KD of MS2 coat protein", "setting": "[3]", "result": 0.0145, "unit": "µM"}]}, {"sequence": "GGGACAUGAGGAUCACCCAUGUACCGGUCCCGAGGACCGGUACGGCCGCCACUCGAUGACCUCAUAGUCUACUUGAGCAGUAGAC [Geeson]", "values": [{"measurement": "apparent KD of MS2 coat protein", "setting": "input ligand: arginine 13.2 mM", "result": 0.0377, "unit": "µM"}, {"measurement": "apparent KD of MS2 coat protein", "setting": "input ligand: none", "result": 0.0221, "unit": "µM"}, {"measurement": "apparent KD of MS2 coat protein", "setting": "[1]", "result": 0.143, "unit": "µM"}, {"measurement": "apparent KD of MS2 coat protein", "setting": "[2]", "result": 0.0386, "unit": "µM"}, {"measurement": "apparent KD of MS2 coat protein", "setting": "[3]", "result": 0.1, "unit": "µM"}]}, {"sequence": "GGGAGAUAGGCGGCCGCCACUGAUUUUCAUAUAUAUAUAACAUGAGGAUCACCCAUGUAGAUAUACAGGACCGGGCCUAUUUUUU [aaaE]", "values": [{"measurement": "apparent KD of MS2 coat protein", "setting": "input ligand: arginine 13.2 mM", "result": 0.0191, "unit": "µM"}, {"measurement": "apparent KD of MS2 coat protein", "setting": "[1]", "result": 0.0225, "unit": "µM"}, {"measurement": "apparent KD of MS2 coat protein", "setting": "[2]", "result": 0.0197, "unit": "µM"}]}]}
